Assays:
Assay type in all cases: in vivo
Settings in all cases: 7 DAT, number of plants of 24 per genotype, grades
[1] = system: Arabidopsis thaliana T1 plants; assay: saflufenacil tolerance of transgenic Arabidopsis thaliana T1 plants (spray, grade of pesticide damage)
Summary of the method: (§1)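 Read-out: injury grade at 7 DAT from injured vs total leaf area (0 = as water-sprayed; 1 = <10%; 3 = 100%); grades 0–1 were rated highly resistant. Plants were 18-day-old glufosinate-selected PPO-transgenic T1 lines plus controls, n = 24 per genotype. Doses: saflufenacil 25/100, sulfentrazone 450/900, flumioxazin 60/240, oxyfluorfen 180/720 g ai/ha.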

[2] = system: Arabidopsis thaliana T1 plants; assay: sulfentrazone tolerance of transgenic Arabidopsis thaliana T1 plants (spray, grade of pesticide damage)
Summary of the method: as §1

[3] = system: Arabidopsis thaliana T1 plants; assay: flumioxazin tolerance of transgenic Arabidopsis thaliana T1 plants (spray, grade of pesticide damage)
Summary of the method: as §1

[4] = system: Arabidopsis thaliana T1 plants; assay: oxyfluorfen tolerance of transgenic Arabidopsis thaliana T1 plants (spray, grade of pesticide damage)
Summary of the method: as §1

Molecule	The grade of pesticide damage/plant: grade 0 ([1]; saflufenacil 25 g ai/ha (1×)) [plant]	The grade of pesticide damage/plant: grade 1 ([1]; saflufenacil 25 g ai/ha (1×)) [plant]	The grade of pesticide damage/plant: grade 2 ([1]; saflufenacil 25 g ai/ha (1×)) [plant]	The grade of pesticide damage/plant: grade 3 ([1]; saflufenacil 25 g ai/ha (1×)) [plant]	The grade of pesticide damage/plant: grade 0 ([1]; saflufenacil 100 g ai/ha (4×)) [plant]	The grade of pesticide damage/plant: grade 1 ([1]; saflufenacil 100 g ai/ha (4×)) [plant]	The grade of pesticide damage/plant: grade 2 ([1]; saflufenacil 100 g ai/ha (4×)) [plant]	The grade of pesticide damage/plant: grade 3 ([1]; saflufenacil 100 g ai/ha (4×)) [plant]	The grade of pesticide: grade 0 ([2]; sulfentrazone 450 g ai/ha (1×))	The grade of pesticide: grade 1 ([2]; sulfentrazone 450 g ai/ha (1×))	The grade of pesticide: grade 2 ([2]; sulfentrazone 450 g ai/ha (1×))	The grade of pesticide: grade 3 ([2]; sulfentrazone 450 g ai/ha (1×))	The grade of pesticide: grade 0 ([2]; sulfentrazone 900 g ai/ha (2×))	The grade of pesticide: grade 1 ([2]; sulfentrazone 900 g ai/ha (2×))	The grade of pesticide: grade 2 ([2]; sulfentrazone 900 g ai/ha (2×))	The grade of pesticide: grade 3 ([2]; sulfentrazone 900 g ai/ha (2×))	The grade of pesticide damage/plant: grade 0 ([3]; flumioxazin 60 g ai/ha (1×)) [plant]	The grade of pesticide damage/plant: grade 1 ([3]; flumioxazin 60 g ai/ha (1×)) [plant]	The grade of pesticide damage/plant: grade 2 ([3]; flumioxazin 60 g ai/ha (1×)) [plant]	The grade of pesticide damage/plant: grade 3 ([3]; flumioxazin 60 g ai/ha (1×)) [plant]	also measured
PPO14A: nucleotide sequence encoding microbial protoporphyrinogen oxidase PPO14 (SEQ ID NO:14), Arabidopsis thaliana/soybean common codon usage bias (nucleic acid, The nucleotide sequence of PPO14A) DNA: ATGTCTAACAAGGCCTTGCTGCTCTATAGTACAAGAGAAGGTCAAACTAAAAAGATTCTTCAGTACATAGACAAAGAGCTTCATGATTACCAATGTGATTATGTCGATCTTCACACAATGCCTATAGAGATTGATTTCTCTGGTTATGATAAAGTTTTGGTAGGGGCGTCCATCCGGTATGGACATTTAAACAAAAAACTTTACAGATTCATCGAGAGGTACAAAGCAGAGTTGAAGGATAATAATGCTGCTTTCTTCTGCGTCAATCTAACCGCAAGGAAAGAACAACAAGGAAAAGATACTCCTGAAGGATCAGCTTATATTCAGACTTTTCTCAAGAAGTCTCCATGGCAGCCAGCATTGATAGGTGTTTTTGCTGGAGCTTTACGTTACCCGAAGTATAGATGGTTTGACAAGATGATGATTCGACTAATCATGACTATGACGGGCGGTGAAACCGACACATCAAAGGAAGTGGAGTATACAAATTGGAAGAAAGTGAGCCTCTTTGTTGAAAACTGGCAAAAGCAGTGA	24	0	0	0	0	24	0	0	24	0	0	0	19	5	0	0	24	0	0	0	The grade of pesticide damage/plant: grade 0 ([3]; flumioxazin 240 g ai/ha (4×)): 19 plant; The grade of pesticide damage/plant: grade 1 ([3]; flumioxazin 240 g ai/ha (4×)): 5 plant; The grade of pesticide damage/plant: grade 2 ([3]; flumioxazin 240 g ai/ha (4×)): 0 plant; The grade of pesticide damage/plant: grade 3 ([3]; flumioxazin 240 g ai/ha (4×)): 0 plant; The grade of pesticide damage/plant: grade 0 ([4]; oxyfluorfen 180 g ai/ha (1×)): 24 plant; The grade of pesticide damage/plant: grade 1 ([4]; oxyfluorfen 180 g ai/ha (1×)): 0 plant; The grade of pesticide damage/plant: grade 2 ([4]; oxyfluorfen 180 g ai/ha (1×)): 0 plant; The grade of pesticide damage/plant: grade 3 ([4]; oxyfluorfen 180 g ai/ha (1×)): 0 plant; The grade of pesticide damage/plant: grade 0 ([4]; oxyfluorfen 720 g ai/ha (4×)): 20 plant; The grade of pesticide damage/plant: grade 1 ([4]; oxyfluorfen 720 g ai/ha (4×)): 4 plant; The grade of pesticide damage/plant: grade 2 ([4]; oxyfluorfen 720 g ai/ha (4×)): 0 plant; The grade of pesticide damage/plant: grade 3 ([4]; oxyfluorfen 720 g ai/ha (4×)): 0 plant
PPO11A: nucleotide sequence encoding microbial protoporphyrinogen oxidase PPO11 (SEQ ID NO:11), Arabidopsis thaliana/soybean common codon usage bias (nucleic acid, The nucleotide sequence of PPO11A) DNA: ATGCAAAAAGCTCTTTTCCTCTACAGTTCAAGAGAAGGACAAACAAAGAAAATACTCAACTACATCAAGGAAGAACTATCAGAGTTTGATTGTGAGCTTGCTGATCTTCATCAGATTGAAGATATTGATTTAGCCTTGTATGATCGAGTATTAATAGGCGCAAGCATCCGGTATGGTCACTTGAACAAAAAGCTTTATCAGTTTATTGAGAAGCATGCTGAGCAACTTGCGCTGGCAAAAGCAGCTTTCTTCTGCGTGAATCTCACTGCAAGGAAAGAGGCTCAAGGAAAAGATACTCCGGAAGGTTCTGTTTACATAAAGACGTTTCTGTCCAAGTCTGCTTGGCAACCAAAGTTGATTGGAGTTTTTGCTGGTGCCCTATACTATCCTCGTTACCATTTCTTTGACAAAGTGATGATTAGATTCATCATGTCTTTAACCGGGGGAGAAACTGACACATCAAAAGAAGTTGAGTATACAAATTGGCAGAAAGTCTCGTTGTTTAGTGACAATTTCAAGAAGATGTGA	24	0	0	0	0	24	0	0	24	0	0	0	19	5	0	0	24	0	0	0	The grade of pesticide damage/plant: grade 0 ([3]; flumioxazin 240 g ai/ha (4×)): 20 plant; The grade of pesticide damage/plant: grade 1 ([3]; flumioxazin 240 g ai/ha (4×)): 4 plant; The grade of pesticide damage/plant: grade 2 ([3]; flumioxazin 240 g ai/ha (4×)): 0 plant; The grade of pesticide damage/plant: grade 3 ([3]; flumioxazin 240 g ai/ha (4×)): 0 plant; The grade of pesticide damage/plant: grade 0 ([4]; oxyfluorfen 180 g ai/ha (1×)): 24 plant; The grade of pesticide damage/plant: grade 1 ([4]; oxyfluorfen 180 g ai/ha (1×)): 0 plant; The grade of pesticide damage/plant: grade 2 ([4]; oxyfluorfen 180 g ai/ha (1×)): 0 plant; The grade of pesticide damage/plant: grade 3 ([4]; oxyfluorfen 180 g ai/ha (1×)): 0 plant; The grade of pesticide damage/plant: grade 0 ([4]; oxyfluorfen 720 g ai/ha (4×)): 21 plant; The grade of pesticide damage/plant: grade 1 ([4]; oxyfluorfen 720 g ai/ha (4×)): 3 plant; The grade of pesticide damage/plant: grade 2 ([4]; oxyfluorfen 720 g ai/ha (4×)): 0 plant; The grade of pesticide damage/plant: grade 3 ([4]; oxyfluorfen 720 g ai/ha (4×)): 0 plant
PPO13A: nucleotide sequence encoding microbial protoporphyrinogen oxidase PPO13 (SEQ ID NO:13), Arabidopsis thaliana/soybean common codon usage bias (nucleic acid, The nucleotide sequence of PPO13A) DNA: ATGGCTAAAGCTCTTTTCCTGTACTCATCTAGAGAAGGACAAACAAAGAAGATTCTTCATTACATAGACGAGAAGTTAACTGGGTTTGAGTGTGAACTCGTTGATTTGCACAATGTCGAAACTATTGATTTTTCTCAGTATGATAGAGTCTTAATTGGAGCGTCCATACGATATGGTCATCTCAACAAGAAATTATATCAGTTTATCGACCGTAACCTGAACCAGCTAGAGCAAAGCAAGGTAGCTTTCTTCTGCGTGAATCTCACCGCACGGAAAGAGGATCAAGGAAAAGATACTCCTGAAGGCTCAGCTTACATAAGGAAGTTTCTTATCAAATCGCCTTGGAAACCGACATTGATTGGTGTTTTCGCAGGTGCACTTTACTATCCAAGATATGGGTGGTTTGATAAAACAATGATCAAATTCATCATGAGTATGACTGGTGGAGAAACCGACACGACCAAGGAAGTTGAGTACACAAATTGGGAAAAAGTGGCCTTGTTTGCTGATAAGTTCAAGGAGCTATGA	24	0	0	0	0	24	0	0	24	0	0	0	23	1	0	0	24	0	0	0	The grade of pesticide damage/plant: grade 0 ([3]; flumioxazin 240 g ai/ha (4×)): 19 plant; The grade of pesticide damage/plant: grade 1 ([3]; flumioxazin 240 g ai/ha (4×)): 5 plant; The grade of pesticide damage/plant: grade 2 ([3]; flumioxazin 240 g ai/ha (4×)): 0 plant; The grade of pesticide damage/plant: grade 3 ([3]; flumioxazin 240 g ai/ha (4×)): 0 plant; The grade of pesticide damage/plant: grade 0 ([4]; oxyfluorfen 180 g ai/ha (1×)): 24 plant; The grade of pesticide damage/plant: grade 1 ([4]; oxyfluorfen 180 g ai/ha (1×)): 0 plant; The grade of pesticide damage/plant: grade 2 ([4]; oxyfluorfen 180 g ai/ha (1×)): 0 plant; The grade of pesticide damage/plant: grade 3 ([4]; oxyfluorfen 180 g ai/ha (1×)): 0 plant; The grade of pesticide damage/plant: grade 0 ([4]; oxyfluorfen 720 g ai/ha (4×)): 18 plant; The grade of pesticide damage/plant: grade 1 ([4]; oxyfluorfen 720 g ai/ha (4×)): 6 plant; The grade of pesticide damage/plant: grade 2 ([4]; oxyfluorfen 720 g ai/ha (4×)): 0 plant; The grade of pesticide damage/plant: grade 3 ([4]; oxyfluorfen 720 g ai/ha (4×)): 0 plant

— patent US20240200091A1, “USE OF PROTOPORPHYRINOGEN OXIDASE” (BEIJING DABEINONG BIOTECHNOLOGY CO., LTD., priority 2021, published 2024)
